What all share (test): SPR
On the technique in general: SPR reads the build-up and loss of mass on a sensor chip optically.

The target of assay [1] is T1, Recombinant B7-H4 (UniProt Q7Z7D3 25-259, N-glycans, including high mannose glycans through which PFL binds).
T1 chain: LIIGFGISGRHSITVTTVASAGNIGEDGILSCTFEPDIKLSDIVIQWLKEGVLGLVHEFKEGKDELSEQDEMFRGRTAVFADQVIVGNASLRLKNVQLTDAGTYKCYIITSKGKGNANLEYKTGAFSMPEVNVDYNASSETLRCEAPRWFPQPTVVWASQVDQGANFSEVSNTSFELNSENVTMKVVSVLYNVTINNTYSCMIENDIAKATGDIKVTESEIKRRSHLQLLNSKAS

Assay [2] deals with T2, Recombinant integrin αvβ3 (UniProt P06756 31-1048; P05106 27-718).
T2 chain 1: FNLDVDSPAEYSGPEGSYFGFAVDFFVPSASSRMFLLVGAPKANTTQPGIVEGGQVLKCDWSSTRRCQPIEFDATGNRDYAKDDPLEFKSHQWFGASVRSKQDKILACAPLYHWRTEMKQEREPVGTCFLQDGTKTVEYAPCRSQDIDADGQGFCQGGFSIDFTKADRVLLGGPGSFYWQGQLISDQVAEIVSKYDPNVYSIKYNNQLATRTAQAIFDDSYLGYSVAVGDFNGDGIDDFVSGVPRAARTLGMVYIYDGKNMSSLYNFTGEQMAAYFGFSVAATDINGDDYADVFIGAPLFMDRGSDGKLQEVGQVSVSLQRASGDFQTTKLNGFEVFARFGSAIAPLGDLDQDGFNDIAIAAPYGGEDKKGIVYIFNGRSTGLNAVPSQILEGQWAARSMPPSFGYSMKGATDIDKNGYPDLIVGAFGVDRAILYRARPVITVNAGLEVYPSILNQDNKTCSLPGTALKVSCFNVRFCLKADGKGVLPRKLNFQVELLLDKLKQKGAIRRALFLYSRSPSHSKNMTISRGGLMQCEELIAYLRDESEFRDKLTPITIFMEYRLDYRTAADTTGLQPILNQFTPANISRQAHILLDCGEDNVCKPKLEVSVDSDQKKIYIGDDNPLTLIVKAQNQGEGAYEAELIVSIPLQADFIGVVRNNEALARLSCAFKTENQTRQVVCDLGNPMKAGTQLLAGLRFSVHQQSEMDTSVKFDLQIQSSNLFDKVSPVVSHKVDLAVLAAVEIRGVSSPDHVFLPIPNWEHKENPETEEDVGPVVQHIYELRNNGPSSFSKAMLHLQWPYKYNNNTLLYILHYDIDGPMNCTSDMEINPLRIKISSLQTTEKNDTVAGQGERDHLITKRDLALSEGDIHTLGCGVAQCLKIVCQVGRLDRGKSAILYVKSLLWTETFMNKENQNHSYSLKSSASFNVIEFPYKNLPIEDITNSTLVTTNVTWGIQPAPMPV
T2 chain 2: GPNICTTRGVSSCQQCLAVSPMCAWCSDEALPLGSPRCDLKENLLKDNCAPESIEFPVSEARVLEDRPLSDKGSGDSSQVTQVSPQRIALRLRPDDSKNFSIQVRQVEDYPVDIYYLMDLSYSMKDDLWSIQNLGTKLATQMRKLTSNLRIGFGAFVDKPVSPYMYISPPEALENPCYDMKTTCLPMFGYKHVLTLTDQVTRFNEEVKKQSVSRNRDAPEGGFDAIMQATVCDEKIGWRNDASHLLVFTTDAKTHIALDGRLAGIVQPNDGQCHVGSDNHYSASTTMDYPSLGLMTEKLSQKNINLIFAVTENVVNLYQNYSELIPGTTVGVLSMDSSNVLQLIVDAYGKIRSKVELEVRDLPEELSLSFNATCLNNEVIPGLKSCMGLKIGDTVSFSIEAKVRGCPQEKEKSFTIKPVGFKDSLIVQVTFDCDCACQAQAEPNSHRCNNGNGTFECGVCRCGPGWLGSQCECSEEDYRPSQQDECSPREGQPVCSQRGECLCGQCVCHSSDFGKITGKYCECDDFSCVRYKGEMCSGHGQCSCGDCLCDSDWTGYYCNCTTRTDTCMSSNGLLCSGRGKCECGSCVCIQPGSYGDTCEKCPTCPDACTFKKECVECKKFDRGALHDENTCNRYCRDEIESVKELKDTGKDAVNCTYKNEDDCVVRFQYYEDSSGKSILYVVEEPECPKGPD

Assay [3] has as its target T1, Recombinant B7-H4.
The target of assay [4] is T2, Recombinant integrin αvβ3.

This is an account of results in PMC6562446 (2019).

B1: Pseudomonas fluorescens lectin (PFL) (natural protein)
chain: MSKYAVANQWGGSSAPWHPGGTWVLGARDNQNVVAIEIKSGDGGKSFTGTMTYAGEGPIGFKAQRTGQNQYNVENQWGGNDAPWHPGGKWVIGGRDNQNVIALSVTSSDGGKNLSGTNTYANEGPIGFRGQIE
Usually koff stands for a measure of how fast the partners let go of each other. The Kd is the constant that tells how readily two partners part at equilibrium. With B1, the koff was determined as 0.00043 s⁻¹ in the assay with Recombinant B7-H4 [1] and 8.69e-06 s⁻¹ in assay [2]. Further, the values for the equilibrium dissociation constant (Kd) (in the assay with Recombinant B7-H4 [3]; in assay [4]) were 5.35 nM and 1.65 nM, respectively.
